Data reported in US12233135B2, “Therapeutic constructs for treating cancer” (PRECISION MOLECULAR INC., priority 2018, dated 2025).

Test system: B16F10-Red-FLuc mouse melanoma cells
Test: Syngeneic model of experimental metastasis to the lung using B16F10-Red-FLuc cells
Assay type: in vivo
Conditions: Example 9
Protocol: B16F10-Red-FLuc mouse melanoma cells (Perkin Elmer, Waltham, MA, USA) were cultured in RPMI 1640 cell culture medium supplemented with 10% FBS, 1% GlutaMAX™, and 1% penicillin-streptomycin, and grown at 37° C. in a humidified cell culture incubator supplied with 5% CO2. The cells were harvested by trypsinization, washed twice in HBSS and counted (using trypan blue exclusion). The final cell density was adjusted with HBSS to 3.5×10e6 cells/mL. 100 μL of cell suspension, consisting of 3.5×10e5 cells, was discharged into the tail vein of mice at the start of the study (Day 0). Imaging was performed on study Day 5, when the presence of lung tumors was confirmed in sufficient animals to commence the study. Imaging was performed as described in Example 6.
9.5% Trehalose buffer and nanoparticles containing PEG-lucia, PEG-mIL12, PEG-TK-mIL12, PEG-mIL2-mIL12 and PEG-TK-mIL2-mIL12 (each 60 μg/vial) were reconstituted in 300 μL of nuclease-free water per vial on the day of dosing to give dosing solutions of 200 μg/mL. Formulated test articles were stored at 4° C. and used on day of reconstitution.
9.5% Trehalose buffer and nanoparticles containing PEG-lucia, PEG-mIL12, PEG-TK-mIL12, PEG-mIL2-mIL12 and PEG-TK-mIL2-mIL12 were administered via intravenous injection (i.v.) on Study Days 5, 8, 11, 14 and 17. Treatments were administered at a dose of 2 mg/kg in a dosing volume of 10 mL/kg on Study Days 5, 11, 14 and 17. Due to declining body weight in all groups apart from the vehicle control at Day 6, the dose was reduced to 1 mg/kg in 5 mL/kg for the dose administered on Study Day 8. Dosing then resumed at 2 mg/kg in 10 mL/kg on Study Day 11 as per protocol.
The anti-tumor effect of nanoparticles containing PEG-mIL12 and expressing mIL-12 was compared to recombinant mIL-12 protein administered subcutaneously. The experimental design was as Example 8 but nanoparticles were prepared at N/P=4 and N/P=6 ratios. Nanoparticles were dosed as before for N/P=6, however, for the N/P=4 formulation the dose was maintained at 2 mg/kg in 10 mL/kg at day 8. […]

B1: recombinant mIL-12: recombinant mIL-12 protein (PeproTech) administered subcutaneously (protein, UniProt P43431 23-215; P43432 23-335, looked up)
Interleukin-12 subunit alpha: RVIPVSGPARCLSQSRNLLKTTDDMVKTAREKLKHYSCTAEDIDHEDITRDQTSTLKTCLPLELHKNESCLATRETSSTTRGSCLPPQKTSLMMTLCLGSIYEDLKMYQTEFQAINAALQNHNHQQIILDKGMLVAIDELMQSLNHNGETLRQKPPVGEADPYRVKMKLCILLHAFSTRVVTINRVMGYLSSA
Interleukin-12 subunit beta: MWELEKDVYVVEVDWTPDAPGETVNLTCDTPEEDDITWTSDQRHGVIGSGKTLTITVKEFLDAGQYTCHKGGETLSHSHLLLHKKENGIWSTEILKNFKNKTFLKCEAPNYSGRFTCSWLVQRNMDLKFNIKSSSSSPDSRAVTCGMASLSAEKVTLDQRDYEKYSVSCQEDVTCPTAEETLPIELALEARQQNKYENYSTSFFIRDIIKPDPPKNLQMKPLKNSQVEVSWEYPDSWSTPHSYFSLKFFVRIQRKKEKMKETEEGCNQKGAFLVEKTSTEVQCKGGNVCVQAQDRYYNSSCSKWACVPCRVRS
Log-rank test, p≤0.01 for PEG-mIL12 formulations, p≤0.05 for recombinant mIL-12
  Median survival compared with Trehalose control: significantly longer
Study Day 19
  tumor growth by luminescence compared with 9.5% Trehalose control: significant (p≤0.05) inhibition of tumor growth
Nanoparticles 2 mg/kg i.v., recombinant mIL-12 s.c. 4 μg/kg then 12 μg/kg, Trehalose control 22.0 days
  Median survival time: 25.0 days
